{
  "source": "the nanobody polyreactivity screen of Harvey et al. (2022)",
  "data": [
    {"test": "yeast display, Sf9 membrane polyspecificity reagent, FACS + sequencing; frameworks hold sequencing errors", "procedure,_shortened": "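Nanobodies from a synthetic yeast display library (Saccharomyces cerevisiae BJ5465), induced 36–48 hours with galactose, were stained 1 hour at 4 °C with 10% biotinylated, detergent-solubilized Sf9 membrane reagent, enriched on streptavidin microbeads, then FACS-sorted. Anti-HA (expression) and streptavidin (reagent binding) fluorescence set low and high (top ~1%) gates. Polyreactivity labels come from the gate of origin. Genes were colony-PCR amplified, MiSeq 2 × 250 sequenced and filtered by CDR length.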", "values": [
      {"sequence": "QVQLVESGGGLVQAGGSLSLSCAASGRIFNRNAMGWYRQAPGKERELVASISSGGRTNYADSVKGRFTISRDNAKNTFYLQMNSLKPEDTAVYYCAAKSPRILLDYWGQGTQVTVSS", "polyreactivity (PSR sort gate)": "low polyreactivity"},
      {"sequence": "QVQLVESGGGLVQAGGILRLSCASYGSTFALYAMGWYRPAPGKERELVATITGSGGITYYADSVKGRFTISRDNAKNTVYLQMNSLKPVDTAVYYCAADPYTLYWYYWYGTSGFDYWGQGTQVTVSS", "polyreactivity (PSR sort gate)": "low polyreactivity"},
      {"sequence": "QVLLVESGGGLVQAGGSLSLSCAASGLIFVNAMGWYRQAPGKEREFVAAITYSTGSTYYADSVKGRFTISRDNAKNTVYLQMNSLKPEDTAFYYCAKDRSGHGTERDDWGQGTQVTVSS", "polyreactivity (PSR sort gate)": "low polyreactivity"},
      {"sequence": "QVQLVESGGGLVQAGGSLRLSCAASGYIFFRNAMGWSRQAPGKEREFVADIRFSGGNTYYADSVKGRFTISRDNAKNTVYFQKISLKPEDTAVYYCSADLVYTYAYDYWGQGTQVTVSS", "polyreactivity (PSR sort gate)": "low polyreactivity"},
      {"sequence": "QVQLVESGGGLVQAGGSLRLSCAASGFIFGSNAMGWYRQAPGKERELVAAISSRGGRTYYADSVKGRFTISRDNAKNTVYLQMNSLKPEDTAVYYCATVRYRALRYDYWGQGTQVTVSS", "polyreactivity (PSR sort gate)": "high polyreactivity"},
      {"sequence": "QVQLVESGGGLVQAGGSLRLSCAASGRTFSTYTMGWYRPAPGNERELVAAINWSGTSTYYADSVKGRFTISRDTAKNTVYLQMNSLKPEDTAFYYCNAGKWAYRWGYELNYWGQGTQVTVSS", "polyreactivity (PSR sort gate)": "high polyreactivity"},
      {"sequence": "QVQLVESGGGLVQAGVSLRLSCAASGTFFGYAMGWYRQAPGKERELVASITSGDSTNYADSVKGRFTISRDNAKKTVYLQMNSLKPEDTAVYYCNADRFADYDYWGQGTQVTVSS", "polyreactivity (PSR sort gate)": "low polyreactivity"},
      {"sequence": "QVQLVESEGGLVQAGGSLRLSCAASGRTFHYYAMGWYRQAPGKERELVAAISSTGGSTYYADSVKGRFTISRDNAKNTVYLQMNSLKPEDPAVYYCAARRSRGYSPTYDYWGQGTQVTVSS", "polyreactivity (PSR sort gate)": "high polyreactivity"},
      {"sequence": "QVQLQESGGGLVQAGGSLRLSCAASGTIFTARFMGWYRQAPGKERELVATITDGGNTNHADSVKGRFTISRDNAKNTVYLQMNSLKPEDAAVYYFAAGEVDNDTLLYWGQGSQVTVSS", "polyreactivity (PSR sort gate)": "low polyreactivity"},
      {"sequence": "QVQLVESGGGLVQAGASLRLICAASGITFDWYGMGWYRHAPGKERELVATITGSGDSTNYADSVKGRFTISRDNAQNTVYLQMNSLKPEDTAVYYCAAPTSYDQFGYEYWGQGTIVTVSS", "polyreactivity (PSR sort gate)": "low polyreactivity"},
      {"sequence": "QVQLVESGGGLVQAGGSLRLSCAASGSTFVAYTMGWYRQAPGKERELVAAITKRGSSTYYADSVKGRFTISRDNAKNTVYLHMNSLKPEDTAVYYCAAARSLKSYEGDYWGQGTQVTVSS", "polyreactivity (PSR sort gate)": "high polyreactivity"},
      {"sequence": "QVQLVDSGGGLVQAGGSLRLSWAASGSTFVYNAMGWYRQAPGKEREFVAGISRSGGSTYYADSVKGRFTISRDNAKNTVYFQMNSLKPEDTAVYYCNARGGLPKYGYWGQGTQVTVSS", "polyreactivity (PSR sort gate)": "high polyreactivity"},
      {"sequence": "QVQLEESGGGLVQAGGSLRLSCAASGFSFVTYPMGWYRQAPGKEREFVATISRSGGSTYYADSVKGRFTISRDNAKNTVYLQMNSLKPEDTAVYYCAARGRYPYRYGYWGQGTQVTVSS", "polyreactivity (PSR sort gate)": "high polyreactivity"},
      {"sequence": "QVQLVESGGGLVQAGGSLRLSCAASGSTYRGNAMGWYRQAPGKEREFVAAITVSGGSTYYADSVKGRFTISRDNAKNTVFLQMNSLKPEDTAVYYCAARLTYNYYWGQGTQVTVSS", "polyreactivity (PSR sort gate)": "high polyreactivity"},
      {"sequence": "QVQLVESGGGLVQAGGSLRLSCAASGITFWYYVMGWYRQAPGKERELFAAITLSGGSTYYADSVKGRFTISRDNAKNTVYLQMNSLKPEDTAVYYCNADGSAGIRGKYDYWGQGTQVTVSS", "polyreactivity (PSR sort gate)": "low polyreactivity"},
      {"sequence": "QVQLVESGGGLVQAGGSLRLSCAASGSTFGRNAMGWYRQAPGKEREFVAAISSRGGRTSYADSVKGRFTISRDNAKNTVYLQMNSLKPEDTAVYYCATLGYFSASRTDYDYWGQGTQVTVSS", "polyreactivity (PSR sort gate)": "low polyreactivity"},
      {"sequence": "QVQLVESGGGLVQAGGSLRLSCAASGSIFGYYTMGWYRQAPGKERELVAAITSGGSTNYADSVKGRFTISRDNAKNTVYLQMNSLKPEDTSVYYCAKVSYYPWRYDYWGQGTQVTVSS", "polyreactivity (PSR sort gate)": "low polyreactivity"},
      {"sequence": "QVQHVESGGGLVQAGGSLRLSCAASGSTFTDYTMGWYRQAPGIESELVARIRSRGARTYYADSVKGRFTISRDNAKNTVYLQMNSLKPEDTAVYYCNKRWGAHRASPAYDYWGQGTQVTVSS", "polyreactivity (PSR sort gate)": "high polyreactivity"},
      {"sequence": "QVQLVESGGGLVQAGGSLRLSCAASGRIFNGNALGWYRQAPGNERELVAAISSGGRTYYADSVKGRFTISRDNAKNTVYLQMNSLKPEDTAVYYCNARGYSGRVIPEYYYWGQGTQVTVSS", "polyreactivity (PSR sort gate)": "high polyreactivity"},
      {"sequence": "QVQLVESGGGLVQAGGILRLSCAASGGIFADYAMGWYRQAPGKERELVADISARGGSTYYADSVKGRFTISRDNAKNTVYLQMNSLKPEDTAVYYCAADALGYDYYYWGQGTQVTVSS", "polyreactivity (PSR sort gate)": "low polyreactivity"},
      {"sequence": "QVQLVESGGGLVQAGGSLRLSCASSGSTFSYYAMGWYRQATGKERELVAGITTNGGRTFYADSVKGRFTISRDNAKNTVYLQMNSLKPEDTAVYYCNARHGRHRRTRSYYWGQGTQVTVSS", "polyreactivity (PSR sort gate)": "high polyreactivity"},
      {"sequence": "QVQLVESGGGLVQAGGSLRLSCAASGSIFDDYAMGWYRQAPGKERELVAAISDSGGSTSYADSVKGRFTISRDNAKNTVYFQMNSLKPEDTAVYYCNADRDDDYDYWGQGTQVTVSS", "polyreactivity (PSR sort gate)": "low polyreactivity"},
      {"sequence": "QVQLVESGGGLVQAGGSLRLSCAASGNTFHTYTMGWYRQAPGKERELVAVITRSGGRTYYADSVKGRFTISRDNAKNTVYLQMNSLKPEDTAVYYCAVLGAGQTWLDYWGQGTQVTVSS", "polyreactivity (PSR sort gate)": "high polyreactivity"},
      {"sequence": "QVQLVESGGGLVQAGGSLRLSCAASGNNLCRNAMGWYRQAPGKERELVATISSVGTYYADSVKGRFTISRDNAKNNVYVQMNSLKPEDTAVYSCNARGRRSGYISGYDYWGQGTQVTVSS", "polyreactivity (PSR sort gate)": "high polyreactivity"},
      {"sequence": "QVQLVESGGGLVQAGGSLSLSCAAYGITISIYSMGSYRQAPGKERELVAAINSGGTTYYADSVKGRFTISRDNAKNTVYLQMNSLKPEDTAVYYCADEYFAYPYEFYGGQGTQVTVSS", "polyreactivity (PSR sort gate)": "high polyreactivity"},
      {"sequence": "QVQLVESGGGLVQAGGSLRLSCAASGSTFYENTMGWYRQAPGKERELVAAISVRGGSTYYADSVKGRFTISRDNEKKTVYLQMNRLKPEDTAVYYCAVLDVYRYRMDYSGQGTQVTVSS", "polyreactivity (PSR sort gate)": "low polyreactivity"},
      {"sequence": "QVQLVESGGGLVQAGGSLRLSCAASGIIFYGYVMGWYRQAPGKERELVATITSSGGSTYYADSVKGRFTISRDNAKNTVYLQMNSLKPEDTGVYYCAADYYYGAWVRHDYWGQGTQVTLSS", "polyreactivity (PSR sort gate)": "low polyreactivity"},
      {"sequence": "QVQLVESGGGLVQAGGSLRLSCAASGITFSGNTMGWYRQAPGKERELVAAISSGGSTYYADSVKGRFTISRDNAKNTVYLQMNSLKPEDTAVYYCAVDYFYQDGRGYNEYWGQGTQVTVSS", "polyreactivity (PSR sort gate)": "low polyreactivity"},
      {"sequence": "QVQLVESGGGLVQAGGSLRLSCAASGSTLYIYVMGWYRQAPGKERELVAAIDSGDDTDYADSVKGRFTISRDNAKNTVYLQMNSLKPEVTAVYYCAAQKWYYPYYWGKGTQVTVSS", "polyreactivity (PSR sort gate)": "high polyreactivity"},
      {"sequence": "QVQLVDSGGGLVQAGGSLRLSCAASGRIFDYNAMGWYRQAPGKERELVAVITGTGGTTYYADSVKGRFTISRDNAKNTVYLQMNSVKPEDTAVYYCNADDYRLTSLYIPERYDYWGQGTQLTVSS", "polyreactivity (PSR sort gate)": "low polyreactivity"},
      {"sequence": "QVQLVESGGGLVQAGGSLRLSCAASGSTFYYNAMGWYRQAPGKERELVAAISGSGGSTYYADSVKGRFTISRDNAKNTVYLQMNSLKPEDTAVDYCAALYGPGREYDYWGQGTQVTVSS", "polyreactivity (PSR sort gate)": "low polyreactivity"},
      {"sequence": "QVQLVESGGGLVQAGGSLRLSCAASGRIFVQYAMGWYRQAPGKERELVAAISYSGGRTYYADSVKGRFTISRDNAKNTVYLQMNSLKPEDTAVYYCAAVRAGYYGYWGKGTQVTVSS", "polyreactivity (PSR sort gate)": "high polyreactivity"}
    ]}
  ]
}
